Patent US20220048967A1 (published 2022)

T1: human gastric inhibitory peptide receptor (GIPR) (human, UniProt P48546 22-466)
T1 sequence (looked up): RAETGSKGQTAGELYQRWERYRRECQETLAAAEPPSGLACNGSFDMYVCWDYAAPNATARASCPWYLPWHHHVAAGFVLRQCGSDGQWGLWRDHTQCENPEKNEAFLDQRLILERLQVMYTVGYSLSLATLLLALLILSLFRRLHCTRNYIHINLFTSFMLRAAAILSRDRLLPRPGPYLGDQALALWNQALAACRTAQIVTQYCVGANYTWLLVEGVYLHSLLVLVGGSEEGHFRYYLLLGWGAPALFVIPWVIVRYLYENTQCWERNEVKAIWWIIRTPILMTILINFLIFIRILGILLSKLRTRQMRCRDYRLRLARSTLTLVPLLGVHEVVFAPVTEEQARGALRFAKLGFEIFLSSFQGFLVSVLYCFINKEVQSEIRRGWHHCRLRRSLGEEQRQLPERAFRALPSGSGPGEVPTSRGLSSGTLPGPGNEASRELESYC


Key:
Assay in all cases: cell-based or functional assay
[1] = biological target: Pro-Link-tagged Human GLP-1R (human, UniProt P43220 24-463)
[2] = biological target: human GLP-1 receptor (human, UniProt P43220 24-463)
[3] = biological target: human GLP-1 receptor (GLP-1R) (human, UniProt P43220 24-463)
[4] = biological target: T1, human gastric inhibitory peptide …
For hGIPR cAMP EC50 ratio in this document: reference of the scale not given here.
For hGLP1R B-Arrestin2 % Top in this document: reference of the scale not given here.
For hGLP1R GTPgS % Top in this document: reference of the scale not given here.
For hGLP1R cAMP EC50 ratio in this document: reference of the scale not given here.

Binder	hGLP1R B-Arrestin2 % Top [1] [%]	hGLP1R B-Arrestin2 Rel EC50 [1] [nM]	hGLP1R GTPgS % Top [2] [%]	hGLP1R GTPgS Rel EC50 [2] [nM]	hGLP1R cAMP EC50 ratio [3] [ratio]	hGLP1R cAMP Rel EC50 [3] [nM]	hGIPR cAMP EC50 ratio [4] [ratio]	hGIPR cAMP Rel EC50 [4] [nM]
XXEGTFTSDYSIXLDXKAQXEFIEYLIAGGPSSGAPPPS (D-Tyr1, Aib2, αMeL13, Orn16, K17 conjugated to (2-[2-(2-Amino-ethoxy)-ethoxy]-acetyl)-(γ-Glu)-CO-(CH2)18-CO2H, Aib20, C-terminal amide (NH2))	21.7	14.2	62.5	0.27				
XXEGTFTSDYSIXLDXKAQXEFIEXLIAGGPSSGAPPPS (D-Tyr1, Aib2, αMeL13, Orn16, K17 conjugated to (2-[2-(2-Amino-ethoxy)-ethoxy]-acetyl)2-(γ-Glu)-CO-(CH2)16-CO2H, Aib20, αMeY25, C-terminal amide (NH2)) [Example 375]	24.2	11.4	70.4	0.419				
XXEGTFTSDYSIXLDXKAQXEFIEYLIAGGPSSGAPPPS (D-Tyr1; Aib2; αMeL13; Orn16; K17 conjugated to (2-[2-(2-Amino-ethoxy)-ethoxy]-acetyl)-(γ-Glu)-CO-(CH2)18-CO2H; Aib20; C-terminal amide)					0.206	0.132	0.393	0.135
XXEGTFTSDYSIXLDKKAQXEFIEXLIEGGPSSGAPPPS (D-Tyr1, Aib2, αMeL13, K17 conjugated to (2-[2-(2-Amino-ethoxy)-ethoxy]-acetyl)2-(γ-Glu)-CO-(CH2)18-CO2H, Aib20, αMeY25, C-terminal amide (NH2)) [Example 379]	31.9	18.1	71	0.239				
XXEGTFTSDYSIXLDXKAQXEFIEXLIEGGPSSGAPPPS (D-Tyr1, Aib2, αMeL13, Orn16, K17 conjugated to (2-[2-(2-Amino-ethoxy)-ethoxy]-acetyl)2-(γ-Glu)-CO-(CH2)18-CO2H, Aib20, αMeY25, C-terminal amide (NH2)) [Example 380]	35	13.7	66.8	0.188				
XXEGTFTSDYSIXLDEKAQXAFIEXLIAGGPSSGAPPPS (D-Tyr1, Aib2, αMeL13, K17 conjugated to (2-[2-(2-Amino-ethoxy)-ethoxy]-acetyl)2-(γ-Glu)-CO-(CH2)18-CO2H, Aib20, αMeY25, C-terminal amide (NH2)) [Example 381]	25.8	15.5	73.6	0.273				
XXEGTFTSDYSIXLDKKAQXAFVXYLIAGGPSSGAPPPS (D-Tyr1; Aib2; αMeL13; K17 conjugated to (2-[2-(2-Amino-ethoxy)-ethoxy]-acetyl)2-(γ-Glu)-CO-(CH2)18-CO2H; Aib20; D-Glu24; C-terminal amide) [Example 361]					0.0259	0.955	0.261	0.401
XXEGTFTSDYSIXLDXKAQXAFIEXLIAGGPSSGAPPPS (D-Tyr1, Aib2, αMeL13, Orn16, K17 conjugated to (2-[2-(2-Amino-ethoxy)-ethoxy]-acetyl)2-(γ-Glu)-CO-(CH2)18-CO2H, Aib20, αMeY25, C-terminal amide (NH2))	21.2	5.57	67.6	0.409				
XXEGTFTSDYSIXLDKKAQXAFIEXLIAGGPSSGAPPPS (D-Tyr1, Aib2, αMeL13, K17 conjugated to (2-[2-(2-Amino-ethoxy)-ethoxy]-acetyl)2-(γ-Glu)-CO-(CH2)18-CO2H, Aib20, αMeY25, C-terminal amide (NH2))	20.8	7.03	66.9	0.464				
XXEGTFTSDYSIXLDXKAQXDFIEYLIAGGPSSGAPPPS (D-Tyr1; Aib2; αMeL13; Orn16; K17 conjugated to (2-[2-(2-Amino-ethoxy)-ethoxy]-acetyl)2-(γ-Glu)-CO-(CH2)18-CO2H; Aib20; C-terminal amide)					0.319	0.101	0.499	0.166
XXEGTFTSDYSIXLDXKAQXDFIEYLIAGGPSSGAPPPS (D-Tyr1, Aib2, αMeL13, Orn16, K17 conjugated to (2-[2-(2-Amino-ethoxy)-ethoxy]-acetyl)2-(γ-Glu)-CO-(CH2)18-CO2H, Aib20, C-terminal amide (NH2))	19.9	41.4	58.8	0.381				
XXEGTFTSDYSIXLDKKAQXAFIEXLIAGGPSSGAPPPS (D-Tyr1; Aib2; αMeL13; K17 conjugated to (2-[2-(2-Amino-ethoxy)-ethoxy]-acetyl)2-(γ-Glu)-CO-(CH2)18-CO2H; Aib20; αMeY25; C-terminal amide)					0.155	0.175	0.784	0.0678
XXEGTFTSDYSIXLDKKAQXEFIEYLIAGGPSSGAPPPS (D-Tyr1, Aib2, αMeL13, K17 conjugated to (2-[2-(2-Amino-ethoxy)-ethoxy]-acetyl)-(γ-Glu)-CO-(CH2)18-CO2H, Aib20, C-terminal amide (NH2)) [Example 378]		> 10200	68.6	0.359				
XXEGTFTSDYSIXLDKKAQXAFIEXLIAGGPSSGAPPPS (D-Tyr1; Aib2; αMeL13; K17 conjugated to (2-[2-(2-Amino-ethoxy)-ethoxy]-acetyl)-(γ-Glu)-CO-(CH2)18-CO2H; Aib20; αMeY25; C-terminal amide) [Example 373]					0.0621	0.436	0.287	0.185
XXEGTFTSDYSIXLDXKAQXAFIEXLIAGGPSSGAPPPS (D-Tyr1; Aib2; αMeL13; Orn16; K17 conjugated to (2-[2-(2-Amino-ethoxy)-ethoxy]-acetyl)2-(γ-Glu)-CO-(CH2)18-CO2H; Aib20; αMeY25; C-terminal amide)					0.074	0.366	0.598	0.0889
XXEGTFTSDYSIXLDXKAQXAFVXYLIAGGPSSGAPPPS (D-Tyr1; Aib2; αMeL13; Orn16; K17 conjugated to (2-[2-(2-Amino-ethoxy)-ethoxy]-acetyl)2-(γ-Glu)-CO-(CH2)16-CO2H; Aib20; D-Glu24; C-terminal amide) [Example 364]					0.0303	1	0.347	0.351
XXEGTFTSDYSIXLDXKAQXAFVXYLIAGGPSSGAPPPS (D-Tyr1; Aib2; αMeL13; Orn16; K17 conjugated to (2-[2-(2-Amino-ethoxy)-ethoxy]-acetyl)2-(γ-Glu)-CO-(CH2)18-CO2H; Aib20; D-Glu24; C-terminal amide) [Example 362]					0.0805	0.365	0.347	0.302
